Data taken from patent publication US20250218531A1 (ABSCI, published 2025).
Substitutions are numbered along the chain they refer to. “And” between values parts separate entries of the source, which are not always exact repeats. Equal values may be shown once.

B1: Trastuzumab HCDR3 variant AKYGGVGYYAMDY (Fab, V domains shown)
VH: EVQLVESGGGLVQPGGSLRLSCAASGFNIKDTYIHWVRQAPGKGLEWVARIYPTNGYTRYADSVKGRFTISADTSKNTAYLQMNSLRAEDTAVYYCAKYGGVGYYAMDYWGQGTLVTVSS
VL: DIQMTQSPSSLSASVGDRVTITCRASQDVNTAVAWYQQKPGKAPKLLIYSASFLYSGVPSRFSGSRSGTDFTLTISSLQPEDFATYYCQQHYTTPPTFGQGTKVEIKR
B2: Trastuzumab HCDR3 variant ARWGGPGYYAFVW (Fab, V domains shown)
VH: B1 VH with K98R, Y99W, V102P, M107F, D108V, Y109W
VL: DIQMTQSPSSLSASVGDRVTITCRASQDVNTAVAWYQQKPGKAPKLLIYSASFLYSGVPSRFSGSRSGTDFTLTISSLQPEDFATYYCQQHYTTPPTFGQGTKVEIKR
B3: Trastuzumab HCDR3 variant ARWGYGYSYYFDV (Fab, V domains shown)
VH: B1 VH with K98R, Y99W, G101Y, V102G, G103Y, Y104S, A106Y, M107F, Y109V
VL: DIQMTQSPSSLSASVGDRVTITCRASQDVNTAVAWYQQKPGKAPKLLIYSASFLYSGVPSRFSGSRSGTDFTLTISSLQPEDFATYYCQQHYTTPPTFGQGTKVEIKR
B4: Trastuzumab HCDR3 variant ARWGSIGYYAFDH (Fab, V domains shown)
VH: B1 VH with K98R, Y99W, G101S, V102I, M107F, Y109H
VL: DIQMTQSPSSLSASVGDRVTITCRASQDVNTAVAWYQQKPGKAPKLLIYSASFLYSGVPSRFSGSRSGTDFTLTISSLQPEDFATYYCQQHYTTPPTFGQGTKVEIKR
B5: Trastuzumab HCDR3 variant ARWYYGYYYYFDV (Fab, V domains shown)
VH: B1 VH with K98R, Y99W, G100Y, G101Y, V102G, G103Y, A106Y, M107F, Y109V
VL: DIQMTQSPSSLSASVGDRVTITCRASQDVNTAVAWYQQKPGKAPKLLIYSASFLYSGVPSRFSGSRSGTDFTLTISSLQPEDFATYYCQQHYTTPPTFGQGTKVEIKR
B6: Trastuzumab HCDR3 variant ARWGYSGWYVMDY (Fab, V domains shown)
VH: B1 VH with K98R, Y99W, G101Y, V102S, Y104W, A106V
VL: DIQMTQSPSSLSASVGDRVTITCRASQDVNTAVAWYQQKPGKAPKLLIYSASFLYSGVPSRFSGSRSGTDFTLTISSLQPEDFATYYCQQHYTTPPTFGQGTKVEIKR
B7: Trastuzumab HCDR3 variant AKYLGQEAYAYFS (Fab, V domains shown)
VH: B1 VH with G100L, V102Q, G103E, Y104A, M107Y, D108F, Y109S
VL: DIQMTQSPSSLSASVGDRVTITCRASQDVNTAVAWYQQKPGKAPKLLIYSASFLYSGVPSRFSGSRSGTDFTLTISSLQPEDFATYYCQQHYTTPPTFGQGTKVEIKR
B8: Trastuzumab HCDR3 variant ARWLGEGYYNFDY (Fab, V domains shown)
VH: B1 VH with K98R, Y99W, G100L, V102E, A106N, M107F
VL: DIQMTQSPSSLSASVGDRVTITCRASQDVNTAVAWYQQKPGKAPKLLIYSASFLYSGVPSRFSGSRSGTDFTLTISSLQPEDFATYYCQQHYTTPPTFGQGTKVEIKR
B9: Trastuzumab HCDR3 variant ARWGEFGPYYFDY (Fab, V domains shown)
VH: B1 VH with K98R, Y99W, G101E, V102F, Y104P, A106Y, M107F
VL: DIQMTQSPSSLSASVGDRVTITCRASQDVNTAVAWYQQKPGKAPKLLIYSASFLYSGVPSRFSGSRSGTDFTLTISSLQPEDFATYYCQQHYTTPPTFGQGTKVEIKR
B10: Trastuzumab HCDR3 variant ARYDPYGFYHLDY (Fab, V domains shown)
VH: B1 VH with K98R, G100D, G101P, V102Y, Y104F, A106H, M107L
VL: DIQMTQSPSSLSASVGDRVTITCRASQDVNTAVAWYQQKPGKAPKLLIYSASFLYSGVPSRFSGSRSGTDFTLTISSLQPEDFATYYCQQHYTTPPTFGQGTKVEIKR
B11: Trastuzumab HCDR3 variant ARWTERGFYSFDI (Fab, V domains shown)
VH: B1 VH with K98R, Y99W, G100T, G101E, V102R, Y104F, A106S, M107F, Y109I
VL: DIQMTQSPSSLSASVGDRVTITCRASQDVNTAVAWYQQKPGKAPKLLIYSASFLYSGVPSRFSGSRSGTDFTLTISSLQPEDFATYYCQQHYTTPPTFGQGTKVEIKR
B12: Trastuzumab HCDR3 variant ARWPFYGPYNYDY (Fab, V domains shown)
VH: B1 VH with K98R, Y99W, G100P, G101F, V102Y, Y104P, A106N, M107Y
VL: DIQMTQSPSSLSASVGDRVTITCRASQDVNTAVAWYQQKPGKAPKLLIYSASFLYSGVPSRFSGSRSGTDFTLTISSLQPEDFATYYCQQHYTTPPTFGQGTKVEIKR
B13: Trastuzumab HCDR3 variant ARWWGGGAYYFDY (Fab, V domains shown)
VH: B1 VH with K98R, Y99W, G100W, V102G, Y104A, A106Y, M107F
VL: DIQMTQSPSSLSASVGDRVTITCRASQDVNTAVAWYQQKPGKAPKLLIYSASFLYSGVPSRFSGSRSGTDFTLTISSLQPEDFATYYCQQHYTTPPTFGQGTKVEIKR
B14: Trastuzumab HCDR3 variant ARWYGGGYYYMDY (Fab, V domains shown)
VH: B1 VH with K98R, Y99W, G100Y, V102G, A106Y
VL: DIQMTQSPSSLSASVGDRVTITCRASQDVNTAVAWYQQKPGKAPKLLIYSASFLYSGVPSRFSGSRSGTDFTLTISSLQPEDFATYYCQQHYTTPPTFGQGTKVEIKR
B15: Trastuzumab HCDR3 variant ARYSAYGLYDFAY (Fab, V domains shown)
VH: B1 VH with K98R, G100S, G101A, V102Y, Y104L, A106D, M107F, D108A
VL: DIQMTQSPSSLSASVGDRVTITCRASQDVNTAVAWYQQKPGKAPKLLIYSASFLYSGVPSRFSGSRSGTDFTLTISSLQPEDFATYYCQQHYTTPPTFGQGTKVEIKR
B16: Trastuzumab HCDR3 variant ARYGSSYYYYFDY (Fab, V domains shown)
VH: B1 VH with K98R, G101S, V102S, G103Y, A106Y, M107F
VL: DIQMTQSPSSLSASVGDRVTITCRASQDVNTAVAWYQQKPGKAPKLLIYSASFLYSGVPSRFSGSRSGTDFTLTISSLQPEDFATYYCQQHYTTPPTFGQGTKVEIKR
B17: Trastuzumab HCDR3 variant ARNYYDLYYYFDY (Fab, V domains shown)
VH: B1 VH with K98R, Y99N, G100Y, G101Y, V102D, G103L, A106Y, M107F
VL: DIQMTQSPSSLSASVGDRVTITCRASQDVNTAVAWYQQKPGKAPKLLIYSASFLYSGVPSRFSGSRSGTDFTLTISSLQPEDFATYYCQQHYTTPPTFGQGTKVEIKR
B18: Trastuzumab HCDR3 variant ARWDSGGPYYFDS (Fab, V domains shown)
VH: B1 VH with K98R, Y99W, G100D, G101S, V102G, Y104P, A106Y, M107F, Y109S
VL: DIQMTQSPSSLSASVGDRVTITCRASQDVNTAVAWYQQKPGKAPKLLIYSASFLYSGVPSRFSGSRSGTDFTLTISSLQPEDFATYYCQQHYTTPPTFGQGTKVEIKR
B19: Trastuzumab HCDR3 variant ARYSGYGLYPYAY (Fab, V domains shown)
VH: B1 VH with K98R, G100S, V102Y, Y104L, A106P, M107Y, D108A
VL: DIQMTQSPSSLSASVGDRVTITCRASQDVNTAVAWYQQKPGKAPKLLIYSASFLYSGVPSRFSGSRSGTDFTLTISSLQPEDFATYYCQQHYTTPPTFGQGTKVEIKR
B20: Trastuzumab HCDR3 variant ARWLGSGYYWFDY (Fab, V domains shown)
VH: B1 VH with K98R, Y99W, G100L, V102S, A106W, M107F
VL: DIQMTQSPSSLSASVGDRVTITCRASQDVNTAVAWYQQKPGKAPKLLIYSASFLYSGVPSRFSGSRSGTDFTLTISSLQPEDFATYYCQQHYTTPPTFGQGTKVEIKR
B21: Trastuzumab HCDR3 variant ARWGYDYYYAMDY (Fab, V domains shown)
VH: B1 VH with K98R, Y99W, G101Y, V102D, G103Y
VL: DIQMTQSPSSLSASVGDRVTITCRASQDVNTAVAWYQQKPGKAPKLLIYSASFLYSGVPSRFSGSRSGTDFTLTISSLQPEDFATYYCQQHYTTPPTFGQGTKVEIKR
B22: Trastuzumab HCDR3 variant ARHFGVASYSFDY (Fab, V domains shown)
VH: B1 VH with K98R, Y99H, G100F, G103A, Y104S, A106S, M107F
VL: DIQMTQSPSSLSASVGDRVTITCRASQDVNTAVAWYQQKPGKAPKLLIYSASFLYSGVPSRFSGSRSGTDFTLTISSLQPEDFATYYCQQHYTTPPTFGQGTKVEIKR
B23: Trastuzumab HCDR3 variant ARWRGDGGYYFDY (Fab, V domains shown)
VH: B1 VH with K98R, Y99W, G100R, V102D, Y104G, A106Y, M107F
VL: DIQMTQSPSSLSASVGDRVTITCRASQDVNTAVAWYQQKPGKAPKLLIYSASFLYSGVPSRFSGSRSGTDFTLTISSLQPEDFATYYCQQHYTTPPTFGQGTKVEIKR
B24: Trastuzumab HCDR3 variant ARWYGYGGYYFDY (Fab, V domains shown)
VH: B1 VH with K98R, Y99W, G100Y, V102Y, Y104G, A106Y, M107F
VL: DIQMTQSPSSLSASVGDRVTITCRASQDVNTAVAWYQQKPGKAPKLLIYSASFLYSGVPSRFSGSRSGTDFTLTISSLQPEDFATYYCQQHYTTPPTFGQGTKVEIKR
B25: Trastuzumab HCDR3 variant ARYGGGGRYYFDY (Fab, V domains shown)
VH: B1 VH with K98R, V102G, Y104R, A106Y, M107F
VL: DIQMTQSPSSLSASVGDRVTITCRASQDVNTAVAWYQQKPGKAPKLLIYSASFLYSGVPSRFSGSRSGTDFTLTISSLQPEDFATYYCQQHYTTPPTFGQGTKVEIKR
B26: Trastuzumab HCDR3 variant ARYWGLGGYYFDH (Fab, V domains shown)
VH: B1 VH with K98R, G100W, V102L, Y104G, A106Y, M107F, Y109H
VL: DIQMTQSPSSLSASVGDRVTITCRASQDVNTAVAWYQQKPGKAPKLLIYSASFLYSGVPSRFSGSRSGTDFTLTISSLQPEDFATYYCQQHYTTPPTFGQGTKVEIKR
B27: Trastuzumab HCDR3 variant ARWYYYGGYYFDY (Fab, V domains shown)
VH: B1 VH with K98R, Y99W, G100Y, G101Y, V102Y, Y104G, A106Y, M107F
VL: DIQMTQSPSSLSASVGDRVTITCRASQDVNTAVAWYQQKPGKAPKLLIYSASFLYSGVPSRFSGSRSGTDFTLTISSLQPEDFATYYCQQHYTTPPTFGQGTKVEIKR
B28: Trastuzumab HCDR3 variant ARYVGLGGYPLGY (Fab, V domains shown)
VH: B1 VH with K98R, G100V, V102L, Y104G, A106P, M107L, D108G
VL: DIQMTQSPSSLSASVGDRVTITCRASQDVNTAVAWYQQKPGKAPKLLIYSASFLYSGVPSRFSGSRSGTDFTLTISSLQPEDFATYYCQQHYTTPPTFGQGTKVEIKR
B29: Trastuzumab HCDR3 variant ARYGVYPFYYFDY (Fab, V domains shown)
VH: B1 VH with K98R, G101V, V102Y, G103P, Y104F, A106Y, M107F
VL: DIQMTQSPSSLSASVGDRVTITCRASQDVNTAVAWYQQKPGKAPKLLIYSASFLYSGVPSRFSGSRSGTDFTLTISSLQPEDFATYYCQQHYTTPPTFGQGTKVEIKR
B30: Trastuzumab HCDR3 variant ARYGDGYYYYFAY (Fab, V domains shown)
VH: B1 VH with K98R, G101D, V102G, G103Y, A106Y, M107F, D108A
VL: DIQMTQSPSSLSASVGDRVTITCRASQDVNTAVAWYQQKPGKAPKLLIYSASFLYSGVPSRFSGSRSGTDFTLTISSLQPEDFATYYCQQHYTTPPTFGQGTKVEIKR
B31: Trastuzumab HCDR3 variant ARYGSGYYYYFDY (Fab, V domains shown)
VH: B1 VH with K98R, G101S, V102G, G103Y, A106Y, M107F
VL: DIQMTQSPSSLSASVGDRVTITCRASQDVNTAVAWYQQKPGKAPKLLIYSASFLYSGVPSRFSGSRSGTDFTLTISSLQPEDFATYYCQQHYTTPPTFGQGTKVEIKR
B32: Trastuzumab HCDR3 variant ARWGYYGNYYFDY (Fab, V domains shown)
VH: B1 VH with K98R, Y99W, G101Y, V102Y, Y104N, A106Y, M107F
VL: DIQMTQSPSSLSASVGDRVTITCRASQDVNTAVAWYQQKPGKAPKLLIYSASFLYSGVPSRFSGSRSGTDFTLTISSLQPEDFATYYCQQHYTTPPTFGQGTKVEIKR
B33: Trastuzumab HCDR3 variant ARYFYDYYYYFDF (Fab, V domains shown)
VH: B1 VH with K98R, G100F, G101Y, V102D, G103Y, A106Y, M107F, Y109F
VL: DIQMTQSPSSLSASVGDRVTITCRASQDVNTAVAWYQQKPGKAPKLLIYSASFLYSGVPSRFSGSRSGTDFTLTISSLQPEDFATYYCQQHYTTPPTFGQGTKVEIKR
B34: Trastuzumab HCDR3 variant ARYLQLGPYYFDY (Fab, V domains shown)
VH: B1 VH with K98R, G100L, G101Q, V102L, Y104P, A106Y, M107F
VL: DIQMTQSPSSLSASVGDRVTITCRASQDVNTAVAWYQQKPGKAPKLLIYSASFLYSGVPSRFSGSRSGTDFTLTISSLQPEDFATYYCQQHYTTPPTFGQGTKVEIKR
B35: Trastuzumab HCDR3 variant ARYAHYGPYYFDF (Fab, V domains shown)
VH: B1 VH with K98R, G100A, G101H, V102Y, Y104P, A106Y, M107F, Y109F
VL: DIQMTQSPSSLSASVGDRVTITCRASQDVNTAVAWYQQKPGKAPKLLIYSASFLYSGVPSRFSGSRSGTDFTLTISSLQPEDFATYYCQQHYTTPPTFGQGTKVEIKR
B36: Trastuzumab HCDR3 variant ARYTYFGSFDFDY (Fab, V domains shown)
VH: B1 VH with K98R, G100T, G101Y, V102F, Y104S, Y105F, A106D, M107F
VL: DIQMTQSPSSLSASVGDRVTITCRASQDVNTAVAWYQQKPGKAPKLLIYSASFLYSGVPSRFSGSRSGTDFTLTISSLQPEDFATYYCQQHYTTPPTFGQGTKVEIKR
B37: Trastuzumab HCDR3 variant ARWGYGGYYYFDY (Fab, V domains shown)
VH: B1 VH with K98R, Y99W, G101Y, V102G, A106Y, M107F
VL: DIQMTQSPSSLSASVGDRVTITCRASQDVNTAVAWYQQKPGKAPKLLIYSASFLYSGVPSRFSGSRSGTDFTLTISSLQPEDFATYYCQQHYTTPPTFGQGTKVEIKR
B38: Trastuzumab HCDR3 variant ARWGGYGYYYMDV (Fab, V domains shown)
VH: B1 VH with K98R, Y99W, V102Y, A106Y, Y109V
VL: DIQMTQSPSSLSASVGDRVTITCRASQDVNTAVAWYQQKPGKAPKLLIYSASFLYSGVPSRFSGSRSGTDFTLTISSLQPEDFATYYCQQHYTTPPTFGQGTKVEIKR
B39: Trastuzumab HCDR3 variant ARYRGVWYYDFDN (Fab, V domains shown)
VH: B1 VH with K98R, G100R, G103W, A106D, M107F, Y109N
VL: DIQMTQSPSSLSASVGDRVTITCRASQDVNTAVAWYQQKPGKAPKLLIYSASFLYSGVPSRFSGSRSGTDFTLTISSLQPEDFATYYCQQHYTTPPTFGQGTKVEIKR
B40: Trastuzumab HCDR3 variant ARWLRALGYYMDY (Fab, V domains shown)
VH: B1 VH with K98R, Y99W, G100L, G101R, V102A, G103L, Y104G, A106Y
VL: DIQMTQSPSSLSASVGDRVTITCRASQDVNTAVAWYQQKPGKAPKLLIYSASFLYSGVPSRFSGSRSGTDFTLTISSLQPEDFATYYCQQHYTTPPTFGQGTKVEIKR
B41: Trastuzumab HCDR3 variant ARENDGSPGSFEY (Fab, V domains shown)
VH: EVQLVESGGGLVQPGGSLRLSCAASGFNIKDTYIHWVRQAPGKGLEWVARIYPTNGYTRYADSVKGRFTISADTSKNTAYLQMNSLRAEDTAVYYCARENDGSPGSFEYWGQGTLVTVSS
VL: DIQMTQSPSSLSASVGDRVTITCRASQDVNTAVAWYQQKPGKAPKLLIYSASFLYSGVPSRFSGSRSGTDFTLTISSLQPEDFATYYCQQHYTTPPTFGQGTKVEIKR
B42: Trastuzumab HCDR3 variant ARWPGYGSYYMDV (Fab, V domains shown)
VH: B1 VH with K98R, Y99W, G100P, V102Y, Y104S, A106Y, Y109V
VL: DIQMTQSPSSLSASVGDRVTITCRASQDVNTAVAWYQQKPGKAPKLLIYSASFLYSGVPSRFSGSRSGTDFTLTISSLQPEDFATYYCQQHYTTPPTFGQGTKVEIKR
B43: Trastuzumab HCDR3 variant ARYRGYVLYDFAY (Fab, V domains shown)
VH: B1 VH with K98R, G100R, V102Y, G103V, Y104L, A106D, M107F, D108A
VL: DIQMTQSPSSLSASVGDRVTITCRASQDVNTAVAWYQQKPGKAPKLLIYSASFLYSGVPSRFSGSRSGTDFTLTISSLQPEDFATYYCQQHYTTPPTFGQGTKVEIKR
B44: Trastuzumab HCDR3 variant ARYEAYGLYPFGY (Fab, V domains shown)
VH: B1 VH with K98R, G100E, G101A, V102Y, Y104L, A106P, M107F, D108G
VL: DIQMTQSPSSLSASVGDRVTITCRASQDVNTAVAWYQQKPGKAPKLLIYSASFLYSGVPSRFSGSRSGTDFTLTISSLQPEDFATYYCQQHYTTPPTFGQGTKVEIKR
B45: Trastuzumab HCDR3 variant ARYGYYGPYYFDY (Fab, V domains shown)
VH: B1 VH with K98R, G101Y, V102Y, Y104P, A106Y, M107F
VL: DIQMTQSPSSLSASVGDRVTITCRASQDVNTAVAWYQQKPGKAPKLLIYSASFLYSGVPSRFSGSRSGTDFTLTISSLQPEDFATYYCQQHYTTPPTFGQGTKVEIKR
B46: Trastuzumab HCDR3 variant ARYGSRYYYYFDY (Fab, V domains shown)
VH: B1 VH with K98R, G101S, V102R, G103Y, A106Y, M107F
VL: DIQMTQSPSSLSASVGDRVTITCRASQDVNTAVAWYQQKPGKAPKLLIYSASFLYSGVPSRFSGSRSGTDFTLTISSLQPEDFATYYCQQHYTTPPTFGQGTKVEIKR
B47: Trastuzumab HCDR3 variant ARWYYYGRYYFDY (Fab, V domains shown)
VH: B1 VH with K98R, Y99W, G100Y, G101Y, V102Y, Y104R, A106Y, M107F
VL: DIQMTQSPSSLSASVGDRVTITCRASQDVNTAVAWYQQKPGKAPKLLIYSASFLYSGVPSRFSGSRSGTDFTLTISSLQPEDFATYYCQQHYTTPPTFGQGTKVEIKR
B48: Trastuzumab HCDR3 variant ARWGYDYYYYFDV (Fab, V domains shown)
VH: B1 VH with K98R, Y99W, G101Y, V102D, G103Y, A106Y, M107F, Y109V
VL: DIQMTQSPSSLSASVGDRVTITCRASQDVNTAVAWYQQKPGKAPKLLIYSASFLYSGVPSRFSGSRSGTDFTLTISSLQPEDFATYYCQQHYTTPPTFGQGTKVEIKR
B49: Trastuzumab HCDR3 variant AKYINAYSYAFFD (Fab, V domains shown)
VH: B1 VH with G100I, G101N, V102A, G103Y, Y104S, M107F, D108F, Y109D
VL: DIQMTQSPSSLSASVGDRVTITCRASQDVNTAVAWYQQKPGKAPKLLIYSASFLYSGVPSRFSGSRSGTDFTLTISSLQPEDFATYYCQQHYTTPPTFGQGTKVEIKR
B50: Trastuzumab HCDR3 variant ARWYYYGGYYFDV (Fab, V domains shown)
VH: B1 VH with K98R, Y99W, G100Y, G101Y, V102Y, Y104G, A106Y, M107F, Y109V
VL: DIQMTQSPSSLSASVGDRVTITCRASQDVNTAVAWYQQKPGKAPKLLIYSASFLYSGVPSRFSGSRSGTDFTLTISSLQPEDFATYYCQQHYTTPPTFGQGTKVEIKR
B51: Trastuzumab HCDR3 variant ANDIYIQGYDLNR (Fab, V domains shown)
VH: EVQLVESGGGLVQPGGSLRLSCAASGFNIKDTYIHWVRQAPGKGLEWVARIYPTNGYTRYADSVKGRFTISADTSKNTAYLQMNSLRAEDTAVYYCANDIYIQGYDLNRWGQGTLVTVSS
VL: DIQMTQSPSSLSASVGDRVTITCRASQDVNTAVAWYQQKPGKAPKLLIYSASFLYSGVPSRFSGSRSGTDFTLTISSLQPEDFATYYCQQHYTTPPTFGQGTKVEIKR
B52: Trastuzumab HCDR3 variant ARWLAGYNYYFDV (Fab, V domains shown)
VH: B41 VH with E99W, N100L, D101A, S103Y, P104N, G105Y, S106Y, E108D, Y109V
VL: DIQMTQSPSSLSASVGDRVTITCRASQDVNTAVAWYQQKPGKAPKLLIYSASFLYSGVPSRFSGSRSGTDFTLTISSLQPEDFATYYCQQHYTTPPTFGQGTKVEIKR

Molecular target: T1, HER2 (human epidermal growth factor receptor 2) (human, UniProt P04626 23-629)
T1 construct: also called Antigen: HER2
Assay: SPR

Binder	Kd	log(KD (M))
B1	25.2 nM	-7.6
B2	8.08 nM	-8.09
B3	21.1 nM	-7.68
B4	20.5 nM	-7.69
B5	7.04 nM	-8.15
B6	6.93 nM	-8.16
B7	14.9 nM	-7.83
B8	3.42 nM	-8.47
B9	9.24 nM	-8.03
B10	24.2 nM	-7.62
B11	9.28 nM	-8.03
B12	2.64 nM	-8.58
B13	14.9 nM	-7.83
B14	11.8 nM	-7.93
B15	25.5 nM	-7.59
B16	13.9 nM	-7.86
B17	8.41 nM	-8.08
B18	15.4 nM	-7.81
B19	17.4 nM	-7.76
B20	10.9 nM	-7.96
B21	19.4 nM	-7.71
B22	13.9 nM	-7.86
B23	13.1 nM	-7.88
B24	7.43 nM	-8.13
B25	19.6 nM	-7.71
B26	16.5 nM	-7.78

Binder	Kd	log(KD (M))
B27	8.29 nM	-8.08
B28	13.2 nM	-7.88
B29	27 nM	-7.57
B30	7.31 nM	-8.14
B31	15.7 nM	-7.8
B32	13.4 nM	-7.87
B33	7.11 nM	-8.15
B34	14.7 nM	-7.83
B35	19.8 nM	-7.7
B36	15.8 nM	-7.8
B37	19.1 nM	-7.72
B38	8.78 nM	-8.06
B39	14.5 nM	-7.84
B40	15.9 nM and 15.8 nM	-7.8
B41	23.1 nM	-7.64
B42	4.83 nM	-8.32
B43	23.1 nM	-7.64
B44	3.39 nM	-8.47
B45	14.3 nM	-7.84
B46	15.7 nM	-7.8
B47	11 nM	-7.96
B48	26.7 nM	-7.57
B49	17 nM and 16.9 nM	-7.77
B50	12.5 nM	-7.9
B51	3.99 nM	-8.4
B52	15.7 nM	-7.8
